These are literature values, as cited in patent US11173109B2, “Compositions in the form of an injectable aqueous solution comprising amylin, an amylin receptor agonist or an amylin analog and a co-polyamino acid” (ADOCIA, priority 2017, dated 2021).

No end group written: not given here.

For this data set the following is noted: neutral pH.

“amylin: peptide of 37 amino acids which is co-stored and co-secreted with insulin (KCNTATCATQRLANFLVHSSNNFGAILSSTNVGSNTY; not fully specified (C-terminus, bridges); cysteine pairing not given here; UniProt P10997 34-70, looked up)”: the “time for which amylin is stable” value is reported as “less than one”.
